The DeepSol protein solubility set

Assay: soluble on expression in E. coli; label from the status in PepcDB or PDB records

Sequence	soluble on expression in E. coli
MSAEPEFVAARFLPEGERFLVEPLGGGLINRTWLVSPAASPRFVLQRLNTRVFAHPGRITVNLCRIQGRVKQGRSGLAEHWPDLVAPRAGGDAFIDAEGGYWRAQRYLEGSRVLEHIATERQALEVGRVLGTFHAALGEIDCTELEDTLPDFHIAPAYLARLDAVRTSAGAADPSVRQALDFVEARRDFVPVLERAKAAGRLALRIIHGDPKLANILFDRDGERALTLIDLDTVKPGLVHYDIGDCLRSCCNRSGESSDDPGAARFDLALCEAILRGYLAAAGDMLTAEDRDHLYDAIRLIPLELGIRFLADHLAGDVYFRVESRGQNLRRARVQFRLVECIEADETAIRRIVAAPSPSMETGEGLEHHHHHH	not soluble
MREPGFWHRPPSLVSRLLLPIAAIYGNIAAARMQKAGTTVGVPVLCVGNYHMGGAGKTPTTLALVALLREFGETPVVLSRGYGGRLQGPVQVDPSRHSAADIGDEPLMMARRVPVVVARDRTDGAALACALGATVILMDDGFQNPALTKDASLIVVDSHRSIGNGSVFPAGPLRAPLPLQVARTDALVVVGDGTAADGLAQQITTKGGVVLRARLVPEPASVEALRGRRVLAFAGIGDPARFVATLRDSGVEVVEQRAFADHHPFTAEELAELAAAAKRDGLTLVTTEKDLARIGGAQQALGVEIVPFAVTLAFGDEAKLRLFLLDRLNGARAAKLAGRRMAGDPLEHHHHHH	not soluble
MPGGRGRIGVILPANNAGMEYDLWKMAPEGVSIHSTRMKPTKGCEPENVEEFEKELKYSYSLLAEVSDIIIYGRTYGTHKHAHVIKRVIKDVVIPEESVYELLKKLNVRKLWIGTPYIKERTLEEVEWWRNKGFEIVGYDGLGKIRGIDISNTPIFTIYRLVKRHLNEVLKADAVYIACTALSTYEAVQYLHEDLDMPVVSENAAAMWEALNKLKIKAKLPGF	soluble
MGSDKIHHHHHHMPLLLKGSCRCNAVRFEVESHTPVPFMLCYCSICRKQQGGGGFAINLGAAYETLNIRGKRSLGVYRAEIEDDEHPHCEVSTGERNFCRKCGSALWLYDPTWPELVHPFASAIDSDLPKPPSRVHLMLKYKANWVEPVIGKGDKTFDVYPEESIADWHKLTGMWVD	not soluble
DPTKNLRSVDLAVVNEDEGATRNGEFNRYGDKVVKGLLDKDYLAFKQVSADEAAKGLDNGTYLFTVTIPEKFSENVNTLLADQPTKPEIILSYNDFNGTNGSVLTGGLVPKIQQAVSASISESYATKLVNGVNKLGGGLERAADGSAKLEEGSGKLKDGLAKGVAGSQKLNDGSHQLAEGTAKLADGTGQLADGASRLAAGTAKLGNGAAQIDDGVGTLVNTLIPVLTTAQAAAPQLQQAADALRAVGMVAEADRIQDLATKFDANNPDNQVNKLNKLKNGTATLRYMLSDPSSEYYGGVLKLSDGVAKAHDGAVRLNDGAHRLADGTAQLANGTQQLYDGAGRLNEGANTLATKLDEGAKNAPKVPNAEASAKQISVPIVYKENNANPVQTVVDSNDPTAKKLNGGAS	not soluble
MPMTLDLQPGQRLARGVARHLRAHGFVSVEEFVPARGLRVDVMGLGPKGEIWVIECKSSRADFQADAKWQGYLEWCDRYFWAVDMEFPAELLPAESGLLIADAYDAEIVRMAPEQKLAPARRKVLIQKFATHAARRLQALRDPEGHG	not soluble
MGSDKIHHHHHHMSNIKVLIQASSRSWAGGRDICMGLVNGEITVARTIKRALEAFPAAQLCLVAPEFDQDGELGGVIEYVKDKRLKAFYGFDESPLKRMIAASIELADNDYIVRIDGIHFCFDVDLSQKMLALALQKKLDCIKLPADFPVHFSSEVFRVGALRELVKLLDKPELEKFNIHPKIYFELNRYNYNFEYLRTLPQYSDEYLSECRKLAKDIYDIPRLEVGSKRTIWADTPSYHYQLALEYLNSNMKVLDIACGNGYGVRMMSTFLAEVHGADLDPEIINLAKAYTHEKNVEYYIEDITNLSFEDDSYDAVTCFETLEHIPEDDCLKELRRIIRPGGMLVLSTPQNSYGHIPVNACHIVEYSLDALLKLVGRYFLVVKVIGIKAGTIHSDADPYGTNTVLVCIKPF	not soluble
MAGAITLACTIRFEANAEHVYLSSGTKQTVYHYPFPMSTIHITLNGERKEVPAGSTVSELLVIADADRQPVAVVVNEHIVRPDQRDSYILQERDQVEILVFAGGGLEHHHHHH	soluble
MGTHMYSEQGINNTINISTTSLTNATQLTVIGNNNSVYIGNNCKIVSSNIRLKGNNITLFIADDVEIMGLVCSLHSDCSLQIQAKTTMGNGEITIAEKGKISIGKDCMLAHGYEIRNTDMHPIYSLENGERINHGKDVIIGNHVWLGRNVTILKGVCIPNNVVVGSHTVLYKSFKEPNCVIAGSPAKIVKENIVWGRKMYHSTMYDDPTLNEFYK	soluble
MGSDKIHHHHHHMLRVWVGSKPVGVLDRSGRRGSTFVYDVKADDRDAVSLTMPKRTESWNSEFGLLPIFDMNLPEGALEGKIRTAFAKALGHFDDLDLLAVVGRSQIGRIRFTGMDEELVEDVPFRSIDDLLRARRAGDLYNDLLETYAVHSGVAGVQPKVLVRAREDDPSDGRQSLSVRGATHIVKMWDPDEYPELAANEFFCLMAAQQVGLEVPDFRLSEDGLALVVERFDLTDGSYSGYEDFCALNGVTSKDKYNGGYETKLFKRIKEFVSPENAVGSLEVAFRLFVINCGIRNGDAHLKNFGVVYKDAESPVRLAPVYDLITTRAYIKNDAMALTLDGSTAWPDRKKLDRLGVTRANLRPGRVAEIVEQTCDALSDVSGRVKAYFEESSFPEVGEKMLREWQAGVGSLSEGKTIHLMEALDATSARND	not soluble
MKQRPIPRPQTDTTAALQALADALACLRNSATVLAFLRDLCTPAELEALADRWRVVPLLLQGRPYRDIHDHTGISVTTIGRVARCLEHGTGGYAAVLQAQAMPPASSIEKPQ	not soluble
MTTPTFDINAAIQALREGKDLTGKDGILTPLIKQLTEAALAAELDSHLTSTEGANRKNGKTTKTIKSPLGNFELNTPRDRAGTFEPQLVKKHQTQLTDEMERKIIGLFSLGSSYQDIRAHIEDMYGMSVSNGTVNAITDKLLPELQAWRERELEPLYPVIWLDAIHYKIKENGRFISKAVYTILALNVDGKKELLGLYLSDNEGAHHWLSVLTDLYNRGVKDILIACVDGLKGFPEAIATIYPQTEVQLCVIHQIRNSIKYVASKHQKAFMADLKCVYKAATLNAAEMALDELETKWGDKYPVVIKSWRNKWALLSVYFKYPDYVRTAIYTTNAVEAVHRQFRKLAKTKGGFANENSLLKLLYAGILKASERWTHP	soluble
MGKMAAAVGSVATLATEPGEDAFRKLFRFYRQSRPGTADLEGVIDFSAAHAARGKGPGAQKVIKSQLNVSSVSEQNAYRAGLQPVSKWQAYGLKGYPGFIFIPNPFLPGYQWHWVKQCLKLYSQKPNVCNLDKHMSKEETQDLWEQSKEFLRYKEATKRRPRSLLEKLRWVTVGYHYNWDSKKYSADHYTPFPSDLGFLSEQVAAACGFEDFRAEAGILNYYRLDSTLGIHVDRSELDHSKPLLSFSFGQSAIFLLGGLQRDEAPTAMFMHSGDIMIMSGFSRLLNHAVPRVLPNPEGEGLPHCLEAPLPAVLPRDSMVEPCSMEDWQVCASYLKTARVNMTVRQVLATDQNFPLEPIEDEKRDISTEGFCHLDDQNSEVKRARINPHS	not soluble
MAGLFDKQADLYLDARPNYPSEWFSKLADLTDHHGLAWDAATGNGQAALAVAEHYESVVATDVSESQLKLATPHPKINYRHTPTSMTDDELVELIGGENSVDLITVAQGVHWFDLPRFYSVATRLLRKPGGIIAVWGYNDVIVSPEFDAVQYRLHATTLPFWKYPYIQHIFDSYEALPFPFENVGMGSEGEPLKLEMPKTTSFEGIIRMFKSWSAIVTAREKGVELLPESLVRELETAWGGSDLVRSVVYKAFMIAGKVRV	soluble
MSLAFVPHVPRHSRGDNPPSASTASPAVLTLTGERTIPDLDIENYWFRRHQVVYQRLAPRCTARDVLEAGCGEGYGADLIACVARQVIAVDYDETAVAHVRSRYPRVEVMQANLAELPLPDASVDVVVNFQVIEHLWDQARFVRECARVLRGSGLLMVSTPNRITFSPGRDTPINPFHTRELNADELTSLLIDAGFVDVAMCGLFHGPRLRDMDARHGGSIIDAQIMRAVAGAPWPPELAADVAAVTTADFEMVAAGHDRDIDDSLDLIAIAVREGHHHHHH	soluble
SAEGDYYTLGNRQRIPRDPFREQSLASRFMDDDFGLPPFPNELSMDWPGWARPRLSHRLDAPWTGSLRSGFPRASMSSPQGFSSVYTESPRRASAPPTDSDEPWKVCVNVHSFKPEELNVKTKDGFVEVSGKHEEKQDEGGIVTKNFTKKIQIPLDVDPVTVFASLSPEGVLIIEARQTPPYYLYSNEMPAESMEEPEARPQEPSMTSTTTFEARE	soluble
MKEYLTRSNISYFSIGSGTPIIFLHGLSLDKQSTCLFFEPLSNVGQYQRIYLDLPGMGNSDPISPSTSDNVLETLIEAIEEIIGARRFILYGHSYGGYLAQAIAFHLKDQTLGVFLTCPVITADHSKRLTGKHINILEEDINPVENKEYFADFLSMNVIINNQAWHDYQNLIIPGLQKEDKTFIDQLQNNYSFTFEEKLKNINYQFPFKIMVGRNDQVVGYQEQLKLINHNENGEIVLLNRTGHNLMIDQREAVGFHFDLFLDELNSNN	soluble
FAKLVRPPVQIYGIEGRYATALYSAASKQNKLEQVEKELLRVGQILKEPKMAASLLNPYVKRSVKVKSLSDMTAKEKFSPLTSNLINLLAENGRLTNTPAVISAFSTMMSVHRGEVPCTVTTASALDETTLTELKTVLKSFLSKGQVLKLEVKIDPSIMGGMIVRIGEKYVDMSAKTKIQKLSRAMREIL	soluble
MKIKACIFDMDGTLVNSIMDIAFSMNSALSNLGYSKIELSKFNALVGRGFNKFVIDTLKLLSLEHDNPNLQEKLYKEFVKEYNKNLSFQTKPYENIKPLLETMNKLNIPIGILSNKNHEELINLVKNIFGNILFFEIRGYSKNFPPKPDPENALDMILELNAQKEEIAYIGDSDVDMLTALNAGFMPIGVSWGFRSVQELKESGAKHIIHNPLELLDLIK	not soluble
MKESNSRREFLSQSGKMVTAAALFGTSVPLAHAAVAGTLNCEANNTMKITDPHYYLDNVLLETGFDYENGVAVQTRTARQTVEIQDGKIVALRENKLHPDATLPHYDAGGKLMLPTTRDMHIHLDKTFYGGPWRSLNRPAGTTIQDMIKLEQKMLPELQPYTQERAEKLIDLLQSKGTTIARSHCNIEPVSGLKNLQNLQAVLARRQAGFECEIVAFPQHGLLLSKSEPLMREAMQAGAHYVGGLDPTSVDGAMEKSLDTMFQIALDYDKGVDIHLHETTPAGVAAINYMVETVEKTPQLKGKLTISHAFALATLNEQQVDELANRMVVQQISIASTVPIGTLHMPLKQLHDKGVKVMTGTDSVIDHWSPYGLGDMLEKANLYAQLYIRPNEQNLSRSLFLATGDVLPLNEKGERVWPKAQDDASFVLVDASCSAEAVARISPRTATFHKGQLVWGSVAG	soluble
MKKRYRAINDYYRELFGEKIFKLPIDAGFDCPNRDGTVARGGCTFCTVSGSGDAIVAPEAPIREQFYKEIDFMHRKWPEVNKYLVYFQNFTNTHAKLEIIKERYEQAINEPGVIGINIGTRPDCLPDETIYYLAELSERMHVTLELGLQTTYEATSALINRAHSYDLYKKTVKRIRELAPKVEIVSHLINGLPGETHDMMVENVRRCVTDNDIQGIKLHLLHLMTNTRMQRDYHEGRLRLLSQEDYISIICDQLEIIPKHIVIHRITGDAPRHMLIGPMWSLNKW	not soluble
MASGQFVNKLQEEVICPICLDILQKPVTIDCGHNFCLKCITQIGETSCGFFKCPLCKTSVRKNAIR	soluble
